Values quoted from earlier work as cited in article PMC5403572.

Key:
[1] = target: Asp32 (UniProt position 93, LNILVDTGSSN); test: kinetics; conditions: apo (free) enzyme
[2] = target: Asp228 (UniProt position 289, DKSIVDSGTTN); test: kinetics; conditions: apo (free) enzyme

For “Beta-secretase 1 (BACE1, memapsin 2) (Homo sapiens)”, the pKa [1] is listed as 5.2 and the pKa [2] is listed as 3.5.
